Results reported in paper PMC7948595, “1,6-Hexanediol, commonly used to dissolve liquid–liquid phase separated condensates, directly impairs kinase and phosphatase activities” (The Journal of Biological Chemistry, 2021).

Molecular target: T1, GST-Cdk7 (2–346) (human, UniProt P50613 2-346)
T1 construct: Cdk7, human, residues 2-346
Assay: pull-down; 10 µg of purified CDK–cyclin complex immobilised by its GST-tagged subunit on GSH 4B sepharose beads in 100 µl PBS; incubated 1 h in PBS or PBS with 5% 1,6-hexanediol; washed three times; eluted in SDS-sample buffer; Coomassie-stained SDS-PAGE
Details: both partners purified

T1 sequence (P50613 2-346): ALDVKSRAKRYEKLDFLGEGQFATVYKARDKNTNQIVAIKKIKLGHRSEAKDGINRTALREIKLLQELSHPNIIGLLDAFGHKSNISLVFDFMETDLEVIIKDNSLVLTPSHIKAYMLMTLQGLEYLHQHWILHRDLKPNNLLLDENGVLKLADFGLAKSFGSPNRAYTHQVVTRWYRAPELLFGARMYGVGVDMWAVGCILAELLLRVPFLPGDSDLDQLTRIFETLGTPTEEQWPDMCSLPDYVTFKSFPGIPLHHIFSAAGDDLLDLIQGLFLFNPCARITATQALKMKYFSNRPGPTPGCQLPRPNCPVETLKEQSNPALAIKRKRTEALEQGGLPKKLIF

- binding result: binds
B1: Cyclin H (1–323) (natural protein, human, UniProt P51946 1-323, looked up)
chain: MYHNSSQKRHWTFSSEEQLARLRADANRKFRCKAVANGKVLPNDPVFLEPHEEMTLCKYYEKRLLEFCSVFKPAMPRSVVGTACMYFKRFYLNNSVMEYHPRIIMLTCAFLACKVDEFNVSSPQFVGNLRESPLGQEKALEQILEYELLLIQQLNFHLIVHNPYRPFEGFLIDLKTRYPILENPEILRKTADDFLNRIALTDAYLLYTPSQIALTAILSSASRAGITMESYLSESLMLKENRTCLSQLLDIMKSMRNLVKKYEPPRSEEVAVLKQKLERCHSAELALNVITKKRKGYEDDDYVSKKSKHEEEEWTDDDLVESL
notes: Cyclin H, human, residues 1-323; also called CycH
